In patent US20240083958A1, “G PROTEIN PEPTIDOMIMETICS” (VRIJE UNIVERSITEIT BRUSSEL, priority 2020, published 2024):
Where two headings read alike, the source gives them in different places. Bridge positions count the residues as written; N and C are the ends. Square brackets hold non-standard residues; d marks the D form. Primed or numbered codes have the meaning given here. Azk = residue with azidated side chain, clicked to Pra; Pra′ = residue with alkynyl side chain, clicked to Azk; Lys(N3) = [N-]=[N+]=NCCCC[C@H](N)C(=O)O; R8 = C=CCCCCCC[C@@](C)(N)C(=O)O; Cha = N[C@@H](CC1CCCCC1)C(=O)O; R5 = C=CCCC[C@@](C)(N)C(=O)O; S5 = C=CCCC[C@](C)(N)C(=O)O; Pra = C#CC[C@H](N)C(=O)O

Assays:
[1] = biological target: dopamine 1 receptor (D1R) (Homo sapiens, UniProt P21728); test: GPCR-radioligand binding assay (RLA) with dopamine 1 receptor (D1R), [3H]-SCH23390 as radiolabelled antagonist, A-77636 (agonist), in presence and absence of the peptidomimetic; conditions: Table 19; peptidomimetic at 10 μM; ratio IC50 D1R alone / IC50 D1R + peptidomimetic
Procedure: For the radioligand assays on D1R a similar buffer, as for β2AR, was used for the ligands, membrane extracts and peptides (+1% DMSO). The competition assay was performed with [^3H]-SCH23390 as radiolabelled antagonist, at a concentration of 2 nM. A ten-fold dilution series of the agonist, A-77636, was prepared to obtain a dose response curve, starting from 100 μM for the receptor alone and 10 μM in the presence of the peptidomimetics. After incubation, the samples were harvested into filter plates, pre-soaked with 0.5% polyethylenimine (PEI), and washed with ice cold washing buffer using the 96-well harvester. After drying in the oven during 1 h and the addition of scintillation liquid, the plates were placed in the MICROBETA® scintillation counter and incubated for 30 min in the dark before reading.
After the Microbeta scintillation counter, the experimental data was further analyzed using Graphpad Prism 6.0. After normalization of the raw data, a nonlinear regression was used to fit the data in a one-site binding model, with the total binding set as 100% and the non-specific binding between 0 and 5%. The IC50 values, obtained from the competition curves, were used to determine the shift for each peptide, which is the ratio of IC50 of the agonist test compound on the basal conformation (e.g. IC50 β2AR with no peptidomimetic) versus the active conformation (e.g. IC50 β2AR+peptidomimetic) of the receptor. For certain peptide analogues, a biphasic binding curve was observed and therefore fitted by a two-site model (nonlinear regression), resulting in two IC50 values (IC50Hi and IC50Lo) and a FractionHi, the fraction of receptors in the active state.
Peptidomimetics were screened using GPCR-radioligand binding assay (RLA) with dopamine 1 receptor (D1R) binding, using [^3H]-SCH23390 as radiolabelled antagonist, and increasing concentrations of A-77636 (agonist). The half maximal inhibitory concentration (IC50) represents the affinity of the agonist for the receptor. The selectivity is quantified by the shift. “[ ]” denotes cyclic peptides.

[2] = biological target: T1, human β2AR (human, UniProt P07550 2-365); test: cell-based or functional assay
[3] = biological target: dopamine 1 receptor (D1R) (UniProt P21728 1-446, limits assumed); test: cell-based or functional assay
[4] = biological target: T1, human β2AR; test: cell-based or functional assay; remark: listed apart in the source
[5] = biological target: T1, human β2AR; test: cell-based or functional assay; remark: listed apart in the source
[6] = biological target: T1, human β2AR; test: cell-based or functional assay; remark: listed apart in the source
[7] = biological target: T1, human β2AR; test: cell-based or functional assay; remark: listed apart in the source
[8] = biological target: T1, human β2AR; test: cell-based or functional assay; remark: listed apart in the source
[9] = biological target: T1, human β2AR; test: cell-based or functional assay; remark: listed apart in the source
[10] = biological target: T1, human β2AR; test: cell-based or functional assay; remark: listed apart in the source
[11] = biological target: T1, human β2AR; test: cell-based or functional assay; remark: listed apart in the source
[12] = biological target: T1, human β2AR; test: cell-based or functional assay; remark: listed apart in the source

Chain of dopamine 1 receptor (D1R) (UniProt P21728 1-446, limits assumed) (P21728 whole entry): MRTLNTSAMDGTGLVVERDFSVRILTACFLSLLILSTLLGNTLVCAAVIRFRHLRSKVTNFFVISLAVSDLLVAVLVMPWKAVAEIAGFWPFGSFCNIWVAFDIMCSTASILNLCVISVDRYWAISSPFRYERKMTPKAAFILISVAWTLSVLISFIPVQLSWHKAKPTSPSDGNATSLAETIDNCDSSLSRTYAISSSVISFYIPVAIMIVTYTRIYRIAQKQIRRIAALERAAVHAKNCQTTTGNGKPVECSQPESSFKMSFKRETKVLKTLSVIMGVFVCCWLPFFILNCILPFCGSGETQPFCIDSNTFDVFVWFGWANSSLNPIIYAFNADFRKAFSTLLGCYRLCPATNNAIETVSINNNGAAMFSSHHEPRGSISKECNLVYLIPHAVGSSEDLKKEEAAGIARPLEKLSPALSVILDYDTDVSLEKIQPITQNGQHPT
Chain of dopamine 1 receptor (D1R) (Homo sapiens, UniProt P21728) (P21728 whole entry): as above

## Ac-FNDCRDIIQRMHLRQYEChaL-OH (FNDCRDIIQRMHLRQYEXL; HELM PEPTIDE1{[ac].F.N.D.C.R.D.I.I.Q.R.M.H.L.R.Q.Y.E.[Cha].L}$$$$V2.0; SMILES CC[C@H](C)[C@H](NC(=O)[C@H](CC(=O)O)NC(=O)[C@H](CCCNC(=N)N)NC(=O)[C@H](CS)NC(=O)[C@H](CC(=O)O)NC(=O)[C@H](CC(N)=O)NC(=O)[C@H](Cc1ccccc1)NC(C)=O)C(=O)N[C@H](C(=O)N[C@@H](CCC(N)=O)C(=O)N[C@@H](CCCNC(=N)N)C(=O)N[C@@H](CCSC)C(=O)N[C@@H](Cc1c[nH]cn1)C(=O)N[C@@H](CC(C)C)C(=O)N[C@@H](CCCNC(=N)N)C(=O)N[C@@H](CCC(N)=O)C(=O)N[C@@H](Cc1ccc(O)cc1)C(=O)N[C@@H](CCC(=O)O)C(=O)N[C@@H](CC1CCCCC1)C(=O)N[C@@H](CC(C)C)C(=O)O)[C@@H](C)CC) [compound 63]
[1]
  Shift: 24

## Ac-KKKFN[PraCRDAzk]IQRMHLRQYELL-OH (Ac-KKKFN[Pra]CRD[Lys(N3)]IQRMHLRQYELL-OH; triazole 6-10) [compound 42]
[1]
  Shift: 32

## Ac-KKKFN[Pra′]CRD[Azk]IQRMHLRQYELL-OH (triazole 6-10) [compound 42]
[2]
  Shift (averaged): 49
[3]
  IC50 (nM) of A-77636, [3H]-SCH23390 RLA, compound 42 at 10 µM: 0.41 nM
[4]
  IC50 (nM) of isoproterenol, [3H]-DHA RLA, peptidomimetic present: 27.4 nM
  Shift: 42

## Ac-FNDCRD[Pra′]IQR[Azk]HLRQYELL-OH (triazole 7-11) [compound 11]
[5]
  IC50 (nM) of isoproterenol, [3H]-DHA RLA, peptidomimetic present: 116 nM
  Shift: 7
[6]
  Shift (averaged): 7

B1: compound 63 (peptide)
peptide: FNDCRDIIQRMHLRQYEXL
HELM: PEPTIDE1{[ac].F.N.D.C.R.D.I.I.Q.R.M.H.L.R.Q.Y.E.[Cha].L}$$$$V2.0
SMILES: CC[C@H](C)[C@H](NC(=O)[C@H](CC(=O)O)NC(=O)[C@H](CCCNC(=N)N)NC(=O)[C@H](CS)NC(=O)[C@H](CC(=O)O)NC(=O)[C@H](CC(N)=O)NC(=O)[C@H](Cc1ccccc1)NC(C)=O)C(=O)N[C@H](C(=O)N[C@@H](CCC(N)=O)C(=O)N[C@@H](CCCNC(=N)N)C(=O)N[C@@H](CCSC)C(=O)N[C@@H](Cc1c[nH]cn1)C(=O)N[C@@H](CC(C)C)C(=O)N[C@@H](CCCNC(=N)N)C(=O)N[C@@H](CCC(N)=O)C(=O)N[C@@H](Cc1ccc(O)cc1)C(=O)N[C@@H](CCC(=O)O)C(=O)N[C@@H](CC1CCCCC1)C(=O)N[C@@H](CC(C)C)C(=O)O)[C@@H](C)CC
[7]
  IC50 (nM) of isoproterenol, [3H]-DHA RLA, peptidomimetic present: 3.96 nM
  Shift: 198
[2]
  Shift (averaged): 203
[3]
  IC50 (nM) of A-77636, [3H]-SCH23390 RLA, compound 63 at 10 µM: 0.55 nM
[8]
  Fraction HI (%): 81%
  IC50 (nM) of isoproterenol, [3H]-DHA RLA, peptidomimetic present: 7.3 nM
  Shift: 217
[9]
  IC50 (nM) of isoproterenol, [3H]-DHA RLA, peptidomimetic present: 6.88 nM
  Shift: 118

B2: compound 13 (peptide)
peptide: Ac-FNDCRDIIQR[R5]HL[S5]QYELL-OH
modifications: staple 11-14
SMILES: CC[C@H](C)[C@H](NC(=O)[C@H](CC(=O)O)NC(=O)[C@H](CCCNC(=N)N)NC(=O)[C@H](CS)NC(=O)[C@H](CC(=O)O)NC(=O)[C@H](CC(N)=O)NC(=O)[C@H](Cc1ccccc1)NC(C)=O)C(=O)N[C@H](C(=O)N[C@@H](CCC(N)=O)C(=O)N[C@@H](CCCNC(=N)N)C(=O)N[C@]1(C)CCCC=CCCC[C@@](C)(C(=O)N[C@@H](CCC(N)=O)C(=O)N[C@@H](Cc2ccc(O)cc2)C(=O)N[C@@H](CCC(=O)O)C(=O)N[C@@H](CC(C)C)C(=O)N[C@@H](CC(C)C)C(=O)O)NC(=O)[C@H](CC(C)C)NC(=O)[C@H](Cc2c[nH]cn2)NC1=O)[C@@H](C)CC
[10]
  IC50 (nM) of isoproterenol, [3H]-DHA RLA, peptidomimetic present: 312 nM
  Shift: 3
[6]
  Shift (averaged): 3

B3: compound 14 (peptide)
peptide: Ac-FNDCRD[R8]IQRMHL[S5]QYELL-OH
modifications: staple 7-14
SMILES: CC[C@H](C)[C@@H]1NC(=O)[C@](C)(NC(=O)[C@H](CC(=O)O)NC(=O)[C@H](CCCNC(=N)N)NC(=O)[C@H](CS)NC(=O)[C@H](CC(=O)O)NC(=O)[C@H](CC(N)=O)NC(=O)[C@H](Cc2ccccc2)NC(C)=O)CCCCCCC=CCCC[C@@](C)(C(=O)N[C@@H](CCC(N)=O)C(=O)N[C@@H](Cc2ccc(O)cc2)C(=O)N[C@@H](CCC(=O)O)C(=O)N[C@@H](CC(C)C)C(=O)N[C@@H](CC(C)C)C(=O)O)NC(=O)[C@H](CC(C)C)NC(=O)[C@H](Cc2c[nH]cn2)NC(=O)[C@H](CCSC)NC(=O)[C@H](CCCNC(=N)N)NC(=O)[C@H](CCC(N)=O)NC1=O
[10]
  IC50 (nM) of isoproterenol, [3H]-DHA RLA, peptidomimetic present: 433 nM
  Shift: 2
[6]
  Shift (averaged): 2

## Ac-KKKFN[Pra′]CRD[Azk]IQRMHLRQYE[Cha]L-OH (triazole 6-10) [compound 51]
[2]
  Shift (averaged): 400
[3]
  IC50 (nM) of A-77636, [3H]-SCH23390 RLA, compound 51 at 10 µM: 0.25 nM
[11]
  IC50 (nM) of isoproterenol, [3H]-DHA RLA, compound 51 at 1 µM: 56.4 nM
  IC50 (nM) of isoproterenol, [3H]-DHA RLA, compound 51 at 10 µM: 6.7 nM
  IC50 (nM) of isoproterenol, [3H]-DHA RLA, compound 51 at 50 µM: 6.9 nM
  IC50 (nM) of isoproterenol, [3H]-DHA RLA, compound 51 at 100 µM: 3.4 nM
[12]
  Fraction HI (%): 83%
  IC50 (nM) of isoproterenol, [3H]-DHA RLA, peptidomimetic present: 2.8 nM
  Shift: 580
